From the supplement of paper PMC6757056
± gives the standard deviation of the averaged measurements.

B1: library; a variant is named by its letters at N, in order (parent)
chain: GCUGUCACCGGUGCUUGGUACGUUAUAUUCAGCCGGUCUGAUGAGUCUNNNNNNAGACGAAACAGC

Tests used:
(6R,S)-folinic acid [1] = variants of: B1; experiment: normalized RNA/DNA level without ligand (relative to sTRSVctl = 100) (log10 (% of sTRSVctl)); HEK293T overexpressing SLC46A1; higher = less ribozyme self-cleavage, higher mRNA level; conditions: without (6R,S)-folinic acid; ligand present: no
In short: (§1)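 RNA level was computed as RNA reads over DNA reads divided by a spiked-in non-cleaving sequence or by the top sequences, then scaled and log-transformed. Scaling was ×100 with log10, the top group was 25 sequences, and the threshold was ≥100 DNA reads. The reads came from HEK293T cells transfected at 4 µg per 6-well well with ribozyme switch library plasmids (mCherry, or eGFP in some ligand experiments). Total RNA was extracted with EDTA 72 h after transfection, with any ligand added 1 h before it.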

(6R,S)-folinic acid [2] = variants of: B1; experiment: normalized RNA/DNA level with ligand (relative to sTRSVctl = 100) (log10 (% of sTRSVctl)); HEK293T overexpressing SLC46A1; ligand concentration (+) RNA-Seq: 6 mM; higher = less ribozyme self-cleavage, higher mRNA level; conditions: with (6R,S)-folinic acid; ligand present: yes
In short: as §1

Row | Variant | normalized RNA/DNA level without ligand (log10) ((6R,S)-folinic acid [1]) | normalized RNA/DNA level with ligand (log10) ((6R,S)-folinic acid [2])
1 | AUGAAC | 1.95 ± 0.004 | 1.97 ± 0.048
2 | CUCCCC | 2.02 ± 0.033 | 2 ± 0.058
3 | CUCCCG | 2.067 ± 0.0068 | 2.0818 ± 0.00082
4 | CUCCCA | 2.064 ± 0.0049 | 2.01 ± 0.061
5 | CUCCCU | 2.04 ± 0.044 | 2.05 ± 0.062
6 | AUCGAA | 1.974 ± 0.0042 | 2 ± 0.02
7 | AUCGAU | 1.98 ± 0.025 | 2.02 ± 0.031
8 | AUGCCU | 2.011 ± 0.0046 | 2.015 ± 0.0068
9 | AUGCCC | 2.037 ± 0.016 | 2.02 ± 0.041
10 | AUGCCA | 2.011 ± 0.0049 | 2.011 ± 0.01
11 | AUGCCG | 1.979 ± 0.0032 | 2 ± 0.023
12 | AUGAGG | 1.812 ± 0.017 | 2.009 ± 0.013
13 | CUCGAU | 1.99 ± 0.0044 | 1.991 ± 0.0061
14 | CUCGAA | 1.994 ± 0.009 | 1.988 ± 0.018
15 | CUCGAC | 2.017 ± 0.0083 | 2.01 ± 0.02
16 | AUCGUC | 2.106 ± 0.011 | 2.06 ± 0.027
17 | AUCGUG | 1.906 ± 0.0026 | 2.01 ± 0.026
18 | AUCGUA | 1.982 ± 0.008 | 1.993 ± 0.013
19 | AUCGUU | 2.043 ± 0.0096 | 2.01 ± 0.036
20 | GUCGCU | 2.048 ± 0.0053 | 2.002 ± 0.02

Row | Variant | normalized RNA/DNA level without ligand (log10) ((6R,S)-folinic acid [1]) | normalized RNA/DNA level with ligand (log10) ((6R,S)-folinic acid [2])
21 | GUCGCG | 1.96 ± 0.026 | 1.996 ± 0.0077
22 | CUGCCG | 2.038 ± 0.012 | 2.075 ± 0.0058
23 | CUGCCU | 2.034 ± 0.011 | 2.003 ± 0.006
24 | CUGCCA | 2.05 ± 0.027 | 2.04 ± 0.033
25 | GUGCGG | 1.968 ± 0.014 | 2.0481 ± 0.00061
26 | GUGCGC | 1.965 ± 0.01 | 2.01 ± 0.057
27 | GUCGAG | 1.947 ± 0.0022 | 2 ± 0.036
28 | GUCGAA | 1.9847 ± 0.0012 | 2.02 ± 0.026
29 | CUGAUC | 2.0695 ± 0.0006 | 2.038 ± 0.013
30 | CUGAUG | 2.014 ± 0.013 | 2.013 ± 0.014
31 | CUGAUA | 1.9701 ± 0.00086 | 2.02 ± 0.048
32 | CUGAUU | 2.015 ± 0.007 | 2.05 ± 0.052
33 | UUGAUU | 2.017 ± 0.012 | 2.027 ± 0.013
34 | UUGAUC | 2.051 ± 0.0013 | 2.01 ± 0.022
35 | UUGAUA | 1.978 ± 0.0072 | 2.03 ± 0.029
36 | UUCUGU | 2.03 ± 0.023 | 2.047 ± 0.0083
37 | UUCUGA | 2.016 ± 0.012 | 2.032 ± 0.0073
38 | UUCCGG | 2.025 ± 0.006 | 2.03 ± 0.031
39 | UUCCGC | 2.03 ± 0.026 | 2.01 ± 0.039
40 | UUCCGU | 2.0373 ± 0.0012 | 2.05 ± 0.048

Row | Variant | normalized RNA/DNA level without ligand (log10) ((6R,S)-folinic acid [1]) | normalized RNA/DNA level with ligand (log10) ((6R,S)-folinic acid [2])
41 | GUCGUC | 2.02 ± 0.03 | 2.02 ± 0.034
42 | GUCGUU | 2.029 ± 0.018 | 2.02 ± 0.056
43 | GUCGUG | 1.9677 ± 0.0013 | 2.04 ± 0.029
44 | AUCCGC | 2.054 ± 0.019 | 2.032 ± 0.005
45 | AUCCGU | 2.023 ± 0.011 | 2.01 ± 0.027
46 | AUCCGA | 1.998 ± 0.0056 | 2.023 ± 0.0052
47 | AUCCGG | 2.0408 ± 0.002 | 2.05 ± 0.023
48 | AUGAUA | 1.946 ± 0.017 | 2.002 ± 0.019
49 | AUGAUC | 2.07 ± 0.028 | 2.06 ± 0.032
50 | GUCUAG | 1.97 ± 0.028 | 2.0363 ± 0.0013
51 | GUCUAA | 1.978 ± 0.0082 | 1.991 ± 0.014
52 | GUCUAC | 2.004 ± 0.0042 | 2.02 ± 0.027
53 | CUGCGC | 2.06 ± 0.0038 | 2.009 ± 0.019
54 | CUGCGU | 2.059 ± 0.011 | 2.06 ± 0.039
55 | CUGCGA | 2.053 ± 0.0059 | 2.06 ± 0.037
56 | CUGCGG | 2.052 ± 0.0072 | 2.066 ± 0.0066
57 | CUCUAG | 2.001 ± 0.019 | 2.02 ± 0.083
58 | CUCUAA | 1.997 ± 0.017 | 2.01 ± 0.044
